Data: US20260242488A1 (BIOTHEUS, published 2026)

Target: monkey c-Met (recombinant protein) (monkey)
Test: BLI (ForteBio), antibody on AHQ sensor, monkey c-Met in solution, 1:1 model

Row | Binder | Kd | koff | kon
1 | anti-c-Met single-arm antibody 223 (antibody, human IgG1, kappa, L234A L235A, made in Expi-CHO) heavy: not shown light: DIQLTQSPSSLSASVGDRVTITCRASQSIITYLNWYQQKPGKAPKLLIYAASSLQSGVPSRFSGSGSGTDFTLNISSLQPEDFATYYCQQANSLPYTFGQGTKVEIKRTVAAPSVFIFPPSDEQLKSGTASVVCLLNNFYPREAKVQWKVDNALQSGNSQESVTEQDSKDSTYSLSSTLTLSKADYEKHKVYACEVTHQGLSSPVTKSFNRGEC not shown | 16.2 nM | 0.00109 s⁻¹ | 67300 M⁻¹ s⁻¹
2 | anti-c-Met single-arm antibody 221 (antibody, human IgG1, kappa, L234A L235A, made in Expi-CHO) heavy: not shown light: EIVLTQSPGTLSLSPGERATLSCRASQSVSSSYLAWYQQKPGQAPRLLIYGPSSRATGIPDRFSGSGSGTDFTLTISSLQPADFASYYCQQSYITPYTFGQGTKVEIKRTVAAPSVFIFPPSDEQLKSGTASVVCLLNNFYPREAKVQWKVDNALQSGNSQESVTEQDSKDSTYSLSSTLTLSKADYEKHKVYACEVTHQGLSSPVTKSFNRGEC not shown | 63.8 nM | 0.00192 s⁻¹ | 30100 M⁻¹ s⁻¹
3 | anti-c-Met single-arm antibody 22 (antibody, human IgG1, kappa, L234A L235A, made in Expi-CHO) heavy: not shown light: DIVMTQSPSSVSASVGDRVTITCRASQGISSWLAWYQQKPGKAPKLLIYAASSLQSGVPSKFSGSGSGTEFTLTISSLQPEDFATYFCQQAYGFPLTFGGGTKVEIKRTVAAPSVFIFPPSDEQLKSGTASVVCLLNNFYPREAKVQWKVDNALQSGNSQESVTEQDSKDSTYSLSSTLTLSKADYEKHKVYACEVTHQGLSSPVTKSFNRGEC not shown | 19 nM | 0.00259 s⁻¹ | 136000 M⁻¹ s⁻¹
4 | anti-c-Met single-arm antibody 187 (antibody, human IgG1, kappa, L234A L235A, made in Expi-CHO) heavy: not shown light: DIVMTQSPSSVSASVGDRVTITCRASQGISSWLAWYQQKPGKAPNLLIYAASNLPSGVPSRFSGSGSGTVFTLTISSLQPEDFATYYCQQSNSFPLTFGGGTKVEIKRTVAAPSVFIFPPSDEQLKSGTASVVCLLNNFYPREAKVQWKVDNALQSGNSQESVTEQDSKDSTYSLSSTLTLSKADYEKHKVYACEVTHQGLSSPVTKSFNRGEC not shown | 2.92 nM | 0.000947 s⁻¹ | 324000 M⁻¹ s⁻¹
5 | anti-c-Met single-arm antibody 74 (antibody, human IgG1, kappa, L234A L235A, made in Expi-CHO) heavy: not shown light: DIVMTQSPSSVSASVGDRVTITCRASQGINSWLAWYQQKPGKAPNLLIYAASSLQSGVPSRFSGRGSGTDFSLTISSLHPEDFATYYCQQAKGFPLTFGGGTKVEIKRTVAAPSVFIFPPSDEQLKSGTASVVCLLNNFYPREAKVQWKVDNALQSGNSQESVTEQDSKDSTYSLSSTLTLSKADYEKHKVYACEVTHQGLSSPVTKSFNRGEC not shown | 9.7 nM | 0.0026 s⁻¹ | 269000 M⁻¹ s⁻¹
6 | anti-c-Met single-arm antibody 136 (antibody, human IgG1, kappa, L234A L235A, made in Expi-CHO) heavy: not shown light: DIVMTQSPSSVSASVGDRVTITCRASQGISSWLAWYQQKPGKAPKLLIYAVSSLQSGVPSRFSGSGSGTDFTLTISSLQPEDFATYFCQQANSFPLTFGGGTKVEIKRTVAAPSVFIFPPSDEQLKSGTASVVCLLNNFYPREAKVQWKVDNALQSGNSQESVTEQDSKDSTYSLSSTLTLSKADYEKHKVYACEVTHQGLSSPVTKSFNRGEC not shown | 1.16 nM | 0.000426 s⁻¹ | 369000 M⁻¹ s⁻¹
7 | anti-c-Met single-arm antibody 23 (antibody, human IgG1, kappa, L234A L235A, made in Expi-CHO) heavy: not shown light: DIVMTQSPSSLSASVGDRVTITCRASQSFSDYLNWYRQKPGKAPKLLLFAASSLQSGVPSRFSGSGSGTDFTLTISSLQPEDFATYYCQQSYSPPYTFGQGTKLEIKRTVAAPSVFIFPPSDEQLKSGTASVVCLLNNFYPREAKVQWKVDNALQSGNSQESVTEQDSKDSTYSLSSTLTLSKADYEKHKVYACEVTHQGLSSPVTKSFNRGEC not shown | 26.5 nM | 0.00151 s⁻¹ | 56900 M⁻¹ s⁻¹
